Assay [1] concerns the target T1, human SIRPγ on stably transfected CHO cells (human, UniProt Q9P1W8 29-387).
T1 construct: also called Human SIRPγ CHO
Briefly: flow cytometry, CHO transfectants, anti-human IgG. How it is done:
(§1) Selected antibodies were tested for binding to stably transfected human SIRPγ, SIRPαV1, or SIRPβ1 (co-transfected with DAP12) Chinese hamster ovary (CHO) cells via flow cytometry. A titration of select antibodies was added to the cells and detected using a fluorescently labelled secondary anti-rat IgG antibody or anti-human IgG antibody. Graphs depict the median fluorescence intensity (MFI) at each concentration. FIGS. 5A and 5G show the binding curves of select antibodies to human SIRPγ, cynomolgus monkey SIRPγ, human SIRPα, cynomolgus monkey SIRPα, human SIRPβ1, or cynomolgus monkey SIRPβl-expressing CHO cells detected using an anti-rat IgG antibody. FIGS. 5B-5F and 5H-5L show the binding curves of select antibodies to human SIRPγ, cynomolgus monkey SIRPγ, human SIRPα, cynomolgus monkey SIRPα, human SIRPβ1, or cynomolgus monkey SIRPβ1-expressing CHO cells detected using an anti-human IgG antibody. […] For select antibodies, each myc-tagged SIRPγ scFv antibody as crude PPE was incubated with each of the SIRP-expressing cell lines stated above along with the parental CHO-K1 cell line. […] Fold change value <2.0 is considered a non-binder.
(In flow cytometry, cells or beads pass a laser one at a time.)

Assay [2] addresses T2, cynomolgus monkey SIRPα on CHO cells (cynomolgus monkey, UniProt A0A2K5VYQ9 31-507).
T2 construct: whole, on cells; also called Cyno SIRPα CHO
T2 sequence: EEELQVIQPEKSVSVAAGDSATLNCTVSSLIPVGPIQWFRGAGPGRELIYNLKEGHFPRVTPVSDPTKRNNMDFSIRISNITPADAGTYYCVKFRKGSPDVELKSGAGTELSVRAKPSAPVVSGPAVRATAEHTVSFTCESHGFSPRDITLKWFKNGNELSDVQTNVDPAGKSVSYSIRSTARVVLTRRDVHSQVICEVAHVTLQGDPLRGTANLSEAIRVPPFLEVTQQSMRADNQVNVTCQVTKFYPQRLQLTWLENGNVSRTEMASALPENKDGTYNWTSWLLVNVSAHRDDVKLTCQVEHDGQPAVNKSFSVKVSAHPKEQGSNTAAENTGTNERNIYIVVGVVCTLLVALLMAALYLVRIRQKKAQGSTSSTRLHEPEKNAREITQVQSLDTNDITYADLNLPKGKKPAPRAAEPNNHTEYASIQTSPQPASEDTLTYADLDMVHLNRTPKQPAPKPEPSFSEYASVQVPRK
Briefly: flow cytometry, CHO transfectants, anti-human IgG. How it is done:
as §1

For assay [3], the target named is T3, Cynomolgus Monkey SIRPγ (plate-coated extracellular domain).
T3 construct: also called Cyno SIRPγ
T3 extracellular domain: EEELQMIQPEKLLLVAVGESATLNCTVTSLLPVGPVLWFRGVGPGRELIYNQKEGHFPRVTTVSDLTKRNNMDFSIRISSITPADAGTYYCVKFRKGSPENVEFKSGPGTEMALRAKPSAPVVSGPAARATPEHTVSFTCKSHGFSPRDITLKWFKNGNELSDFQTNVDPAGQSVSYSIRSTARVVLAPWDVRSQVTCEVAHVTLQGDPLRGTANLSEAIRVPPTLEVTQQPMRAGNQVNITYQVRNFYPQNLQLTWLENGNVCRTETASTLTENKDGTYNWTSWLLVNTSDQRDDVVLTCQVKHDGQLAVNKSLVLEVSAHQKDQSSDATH
Briefly: ELISA, coated SIRP ECD (2 µg/mL), anti-human IgG, luminescence. How it is done:
(§2) Selected hybridoma supernatants of Example 1 were tested for binding to human SIRPγ, cynomolgus monkey SIRPγ, human SIRPα V1, cynomolgus monkey SIRPα, human SIRPβ1, and cynomolgus monkey SIRPβ1 by enzyme-linked immunosorbent assay (ELISA). Briefly, 2 μg/mL of the extracellular domain of SIRP protein was coated onto high protein-binding plates and blocked. Undiluted supernatants were added to coated plates. The antibodies were detected by an anti-rat antibody and a chemiluminescent substrate. […] The data depict the relative luminescence units read by a plate-reader capable of detecting chemiluminescence.
(§3) FIGS. 2A-2G show binding curves of SIRPγ antibodies and human Fc isotype controls to human SIRPγ, cynomolgus monkey SIRPγ, human SIRPα V1, human SIRPα V2, and human SIRPβ1 by ELISA. […] Isotype control 2 was an unrelated human IgG1 antibody with irrelevant CDRs with no modifications in the Fc region. DNA was transiently transfected into Expi293F cells for 5 days. Antibodies were purified by Protein A from cell supernatants and analyzed in a titration via ELISA as previously described in FIG. 1 using an anti-human IgG antibody as the detection antibody.

Assay [4] has as its target T4, extracellular binding domain of human SIRPγ (plate-coated) (human, UniProt Q9P1W8 29-360).
T4 construct: also called hSIRPγ
The assay is described as above. How it is done: as §2, §3

For assay [5], the target named is T1, human SIRPγ on stably transfected CHO …. In words: flow cytometry, myc-scFv PPE. In a few lines:
(§4)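 Flow cytometry on stable CHO transfectants; antibody titration; fluorescent anti-human IgG detection; MFI per concentration. myc-tagged scFv: crude PPE on SIRP-expressing CHO and parental CHO-K1; fold change <2.0 = non-binder.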

The target in assay [6] is T5, cynomolgus monkey SIRPγ on CHO cells (cynomolgus monkey, UniProt Q9P1W8 29-386 (human entry)).
T5 construct: also called Cyno SIRPγ CHO
T5 chain: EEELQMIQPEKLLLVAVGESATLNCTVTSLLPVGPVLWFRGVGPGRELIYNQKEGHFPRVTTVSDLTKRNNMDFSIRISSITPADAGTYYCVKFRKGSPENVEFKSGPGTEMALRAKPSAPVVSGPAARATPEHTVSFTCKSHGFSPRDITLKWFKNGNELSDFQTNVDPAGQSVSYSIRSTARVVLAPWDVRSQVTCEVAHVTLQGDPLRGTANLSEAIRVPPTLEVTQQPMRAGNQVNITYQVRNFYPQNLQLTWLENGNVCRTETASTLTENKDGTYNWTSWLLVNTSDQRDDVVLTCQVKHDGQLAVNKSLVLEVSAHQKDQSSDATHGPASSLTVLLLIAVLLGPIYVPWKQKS
Briefly: flow cytometry, myc-scFv PPE. In a few lines:
as §4

Assay [7] addresses T6, human SIRPγ-His monomer protein (human, UniProt Q9P1W8 29-360).
T6 construct: also called hSIRPγ
In words: BLI Octet, V5-scFv PPE captured, SIRP-His 500 nM.

Assay [8] deals with T7, human SIRPβ1 on CHO cells (co-transfected with DAP12) (human, UniProt O00241 30-398).
T7 construct: whole, on cells; co-transfected with DAP12; also called Human SIRPβ1 CHO
T7 sequence (O00241 30-398): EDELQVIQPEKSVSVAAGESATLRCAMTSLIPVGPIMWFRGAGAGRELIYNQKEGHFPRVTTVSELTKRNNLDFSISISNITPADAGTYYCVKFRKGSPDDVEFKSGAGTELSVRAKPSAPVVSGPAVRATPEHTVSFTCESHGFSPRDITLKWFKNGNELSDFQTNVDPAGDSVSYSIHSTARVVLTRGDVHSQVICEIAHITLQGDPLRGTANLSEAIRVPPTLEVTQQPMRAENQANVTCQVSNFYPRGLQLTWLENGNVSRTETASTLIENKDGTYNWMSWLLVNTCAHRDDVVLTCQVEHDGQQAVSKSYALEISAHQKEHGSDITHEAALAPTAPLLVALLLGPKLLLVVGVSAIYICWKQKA
Briefly: flow cytometry.

In assay [9] the target is T2, cynomolgus monkey SIRPα on CHO cells. Briefly: flow cytometry.
Assay [10] deals with T8, cynomolgus monkey SIRPγ-His monomer protein (cynomolgus monkey, UniProt Q9P1W8 29-359 (human entry), limits assumed).
T8 construct: also called Cyno SIRPγ; Cyno SIRPγ-His
T8 chain: T3 extracellular domain
In words: BLI Octet, captured scFv PPE, cyno SIRP. In a few lines: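 Bio-layer interferometry used biotinylated anti-V5 on streptavidin sensors to capture V5-tagged scFv from crude periplasmic extract. Monomeric His-tagged SIRP protein at 500 nM was associated, then dissociated in wash buffer. Off-rate (kdis) was analyzed from the kinetic traces.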
(BLI is a label-free optical method that tracks binding on a fibre tip over time.)

The target of assay [11] is T7, human SIRPβ1 on CHO cells …. Briefly: flow cytometry, CHO transfectants, anti-human IgG. How it is done: as §1
For assay [12], the target named is T9, bivalent human SIRPγ protein with mouse Fc (human, UniProt Q9P1W8 29-360).
T9 construct: also called Human SIRPγ-mFc
T9 sequence (Q9P1W8 29-360 limits assumed): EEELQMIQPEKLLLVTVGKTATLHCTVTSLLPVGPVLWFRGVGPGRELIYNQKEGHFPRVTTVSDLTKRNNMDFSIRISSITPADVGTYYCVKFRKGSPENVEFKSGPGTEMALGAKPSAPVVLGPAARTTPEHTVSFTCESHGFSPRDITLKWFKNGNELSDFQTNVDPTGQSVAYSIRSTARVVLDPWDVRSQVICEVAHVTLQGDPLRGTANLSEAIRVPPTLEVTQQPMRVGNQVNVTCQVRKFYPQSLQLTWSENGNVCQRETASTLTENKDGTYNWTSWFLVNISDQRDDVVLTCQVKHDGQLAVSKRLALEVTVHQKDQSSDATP
In words: BLI Octet, antibody on AHC, global 1:2 model. How it is done:
(§5) Antibodies were coated onto anti-human Fc capture (AHC) biosensors. SIRP-His monomer protein or bivalent SIRP protein with mouse Fc at four concentrations (200 nM, 100 nM, 50 nM, 25 nM) were exposed to the biosensor to measure on-rate kinetics of SIRP antibodies binding to SIRP protein. The biosensors were then exposed to wash buffer to measure off-rate kinetics. The resulting kinetic data were analyzed and fitted using a global 1:2 binding model.

Assay [13] deals with T8, cynomolgus monkey SIRPγ-His monomer …. In words: BLI Octet, antibody on AHC, global 1:2 model. How it is done: as §5
Assay [14] deals with T6, human SIRPγ-His monomer protein. Briefly: BLI Octet, antibody on AHC, global 1:2 model. How it is done: as §5

Substitutions are numbered along the chain they refer to.

In general, EC50 (read off the curve) refers to the concentration giving half of the maximal effect.

T1 sequence (Q9P1W8 29-387 limits assumed): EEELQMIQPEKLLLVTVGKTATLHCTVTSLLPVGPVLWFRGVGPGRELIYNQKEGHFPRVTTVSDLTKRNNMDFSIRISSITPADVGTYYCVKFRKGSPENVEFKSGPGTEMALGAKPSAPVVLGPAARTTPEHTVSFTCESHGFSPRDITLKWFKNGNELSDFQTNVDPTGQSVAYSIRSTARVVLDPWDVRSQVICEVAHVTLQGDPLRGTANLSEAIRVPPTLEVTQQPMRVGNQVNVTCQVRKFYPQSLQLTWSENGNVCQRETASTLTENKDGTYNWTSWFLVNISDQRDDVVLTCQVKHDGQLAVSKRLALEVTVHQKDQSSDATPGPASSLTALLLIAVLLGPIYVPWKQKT
T6 sequence (Q9P1W8 29-360 limits assumed): as the sequence (Q9P1W8 29-360 limits assumed) above
T4 sequence (Q9P1W8 29-360 limits assumed): as above

B1: Antibody 71 (antibody, V domains shown)
VH: QVQLVQSGAEVKKPGASVKVSCKASGYTFTSYYIHWVRQAPGQGLEWMGTINPSGGSTSYAQKFQGRVTMTRDTSTSTVYMELSSLRSEDTAVYYCARETSRWLRDYYYGMDVWGQGTTVTVSS
VL: DIVMTQSPLSLPVTPGEPASISCRSSQSLLHSNGYNYLDWYLQKPGQSPQLLIYDASSLESGVPDRFSGSGSGTDFTLKISRVEAEDVGVYYCMQGTHWPLTFGGGTKVEIK
As for B1, the entries for the concentration giving a half-maximal response (EC50 (read off the curve)) in assay [1], in [3] and in assay [4] were ~0.1 µg/mL, ~0.02 µg/mL and ~0.02 µg/mL, respectively. The binding result in [2] is given as “no binding (tested: about 20 µg/mL)”.

B2: Antibody 31 (scFv, V domains shown)
VH: QVQLVQSGAEVKKPGASVKVSCKASGGTFRSYAISWVRQAPGQGLEWMGWMNPNSGNTGYAQKFQGRVTMTRDTSTSTVYMELSSLRSEDTAVYYCARESVLKGGMDVWGQGTTVTVSS
VL: DIVMTQSPDSLAVSLGERATINCRSSQSLFHSSTNANNLAWYQQKPGQPPKLLIYWASTRESGVPDRFSGSGSGTDFTLTISSLQAEDVAVYYCQQYYITPLTFGQGTRLEIK
notes: scFv in crude PPE, V5/myc-tagged
Consider B2, for which the “MFI fold change over parental CHO” value in assay [5] worked out at 18.1 fold; in assay [6], 21.3 fold. In addition, the kdis in [7] is 0.001 to 0.01 s⁻¹. Further, the results for the binding result in [8], in assay [9] and in [10] were “no binding (tested: fold change <2.0)”, “no binding (tested: fold change <2.0)” and “binds”, respectively.

B3: Antibody 73 (antibody, V domains shown)
VH: QVQLVQSGAEVKKPGASVKVSCKASGGTFSSYDINWVRQAPGQGLEWMGWMNPNSGNTGYAQKFQGRVTMTRDTSTSTVYMELSSLRSEDTAVYYCARDLTLYCSSTSCLDAFDYWGQGTLVTVSS
VL: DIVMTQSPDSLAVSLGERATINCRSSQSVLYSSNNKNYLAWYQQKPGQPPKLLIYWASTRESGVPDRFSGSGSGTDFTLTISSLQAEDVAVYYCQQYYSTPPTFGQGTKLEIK
As for B3, the binding result in assay [11] and in assay [2] was “no binding (tested: about 20 µg/mL)” each time. The “EC50 (read off the curve)” value in [1] was ~0.5 µg/mL; in assay [3] it was ~0.05 µg/mL; in assay [4], ~0.03 µg/mL.

B4: Antibody 92 (antibody, V domains shown)
VH: B3 VH
VL: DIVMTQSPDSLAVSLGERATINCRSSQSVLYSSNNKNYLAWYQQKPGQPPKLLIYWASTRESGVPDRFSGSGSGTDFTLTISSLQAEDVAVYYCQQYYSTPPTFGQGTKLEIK
B4: the Kd turned out to be 9.03 nM in assay [12], 2960 nM in assay [13] and 12.3 nM in assay [14]. Further, the binding result in assay [11] and in assay [2] was “no binding (tested: about 30 µg/mL)” throughout.

B5: Antibody 85 (antibody, V domains shown)
VH: B3 VH with G27Y, S30T, D99E, L100S, T101Y, L102A, L110Y, Y115I, L121M
VL: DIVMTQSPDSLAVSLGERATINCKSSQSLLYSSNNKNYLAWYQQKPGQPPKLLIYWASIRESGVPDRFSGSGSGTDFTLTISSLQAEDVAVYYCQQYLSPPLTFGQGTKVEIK
For the molecule B5, the Kd in [12] is 35.6 nM; in [13] it was 96.1 nM; in assay [14], 96.9 nM. Further, the binding result in [11] and in assay [2] was “no binding (tested: about 30 µg/mL)” throughout.

B6: Antibody 65 (antibody, V domains shown)
VH: QVQLVQSGAEVKKPGASVKVSCKASGYTFTSHDINWVRQAPGQGLEWMGWMNANNGNAGYAQKFQGRVTMTRDTSTSTVYMELSSLRSEDTAVYYCAKDLSPSSSWSTYYYYYGMDVWGQGTMVTVSS
VL: DIQMTQSPSSLSASVGDRVTITCRASQSISNLLAWYQQKPGKAPKLLIYAASSLQSGVPSRFSGSGSGTDFTLTISSLQPEDFATYYCQQSYSTPYTFGQGTKLEIK
As to B6, the binding result in [11] and in [2] was “no binding (tested: about 20 µg/mL)” each time. The “EC50 (read off the curve)” value in assay [1] was ~0.5 µg/mL.

B7: Antibody 86 (antibody, V domains shown)
VH: EVQLLESGGGLVQPGGSLRLSCAASGFTLGSYWMHWVRQAPGKGLEWVSLISWDGGSTYYADSVKGRFTISRDNSKNTLYLQMNSLRAEDTAVYYCAKGPWVGYSGYDLNYYYYGMDVWGQGTTVTVSS
VL: B6 VL with S28D, S30R, N31R, L32A, Q89L, S91H, Y92N, T94Y, Y96P
In the case of B7, the Kd in assay [12] came out at 3.92 nM; in [13], 48.2 nM; in [14], 56.1 nM.

These data come from US20240400677A1 (ELECTRA THERAPEUTICS, published 2024).
